This note sets out measurements from US20250277199, “NOVEL CRISPR-CAS NUCLEASES FROM METAGENOMES” (Brain Biotech AG, published 2025).

The series deals with T1, BMC08 (uncultured bacterium (metagenome)).
T1 chain: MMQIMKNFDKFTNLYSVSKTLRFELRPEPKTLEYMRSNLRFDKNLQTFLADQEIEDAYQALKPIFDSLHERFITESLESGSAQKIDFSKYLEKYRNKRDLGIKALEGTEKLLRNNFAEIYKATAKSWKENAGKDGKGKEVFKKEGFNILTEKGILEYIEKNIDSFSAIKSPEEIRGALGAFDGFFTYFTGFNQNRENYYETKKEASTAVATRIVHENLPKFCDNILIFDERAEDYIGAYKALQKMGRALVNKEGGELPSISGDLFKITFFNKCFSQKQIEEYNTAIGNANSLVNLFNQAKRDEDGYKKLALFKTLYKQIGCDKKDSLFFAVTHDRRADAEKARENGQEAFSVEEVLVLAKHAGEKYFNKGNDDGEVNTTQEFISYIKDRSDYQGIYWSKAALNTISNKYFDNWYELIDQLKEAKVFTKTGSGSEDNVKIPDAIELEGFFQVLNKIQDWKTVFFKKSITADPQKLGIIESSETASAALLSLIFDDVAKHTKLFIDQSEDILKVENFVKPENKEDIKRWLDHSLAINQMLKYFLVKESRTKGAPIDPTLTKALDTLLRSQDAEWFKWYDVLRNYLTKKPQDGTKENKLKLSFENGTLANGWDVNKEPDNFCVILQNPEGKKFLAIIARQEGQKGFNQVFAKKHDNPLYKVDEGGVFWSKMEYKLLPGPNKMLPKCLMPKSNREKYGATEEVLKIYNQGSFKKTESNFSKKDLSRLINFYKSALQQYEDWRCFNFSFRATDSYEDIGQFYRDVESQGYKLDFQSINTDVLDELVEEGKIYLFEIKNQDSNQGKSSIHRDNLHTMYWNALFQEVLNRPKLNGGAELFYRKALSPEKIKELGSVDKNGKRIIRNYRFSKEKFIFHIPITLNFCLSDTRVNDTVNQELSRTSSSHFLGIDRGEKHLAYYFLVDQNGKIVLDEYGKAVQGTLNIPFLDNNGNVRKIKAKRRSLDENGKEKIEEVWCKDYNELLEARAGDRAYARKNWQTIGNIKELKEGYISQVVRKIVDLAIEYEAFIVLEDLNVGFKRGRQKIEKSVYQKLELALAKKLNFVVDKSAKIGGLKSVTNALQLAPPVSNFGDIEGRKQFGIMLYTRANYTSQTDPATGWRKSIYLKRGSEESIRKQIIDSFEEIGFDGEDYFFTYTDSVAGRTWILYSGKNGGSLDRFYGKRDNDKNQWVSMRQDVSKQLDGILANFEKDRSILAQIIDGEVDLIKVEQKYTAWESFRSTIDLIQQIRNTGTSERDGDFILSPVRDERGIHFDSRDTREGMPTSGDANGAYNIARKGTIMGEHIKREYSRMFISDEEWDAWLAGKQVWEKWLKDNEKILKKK
In words: cell_activity; PAM not stated; E. coli depletion, 30 C. The procedure, abridged:
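E. coli carrying arabinose-induced (0.2%) BMC nuclease, grown at 30° C., made electrocompetent and electroporated with 50-100 ng plasmid carrying gRNA against malQ. Transformants plated on selective M9-glucose agar with kanamycin/ampicillin (± nourseothricin), and growth scored after 48 h at 30° C.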

B1: malQ gRNA (BMC stem-loop + 24 nt spacer) ; malQ protospacer (ssRNA ; dsDNA)
RNA: GAUUUCUACUAUUGUAGAUGUGGCGGUACGUUGAUGCAUCGCG
DNA 1: GTGGCGGTACGTTGATGCATCGCG
DNA 2: CGCGATGCATCAACGTACCGCCAC
In the case of B1, the activity is > 99.9 % colony reduction.
